# Source: paper doi:10.1101/2020.03.02.973859
# T1: K+/Cl- co-transporter KCC2 (mouse (endogenous in mouse forebrain)), Q91V14
# T1 chain: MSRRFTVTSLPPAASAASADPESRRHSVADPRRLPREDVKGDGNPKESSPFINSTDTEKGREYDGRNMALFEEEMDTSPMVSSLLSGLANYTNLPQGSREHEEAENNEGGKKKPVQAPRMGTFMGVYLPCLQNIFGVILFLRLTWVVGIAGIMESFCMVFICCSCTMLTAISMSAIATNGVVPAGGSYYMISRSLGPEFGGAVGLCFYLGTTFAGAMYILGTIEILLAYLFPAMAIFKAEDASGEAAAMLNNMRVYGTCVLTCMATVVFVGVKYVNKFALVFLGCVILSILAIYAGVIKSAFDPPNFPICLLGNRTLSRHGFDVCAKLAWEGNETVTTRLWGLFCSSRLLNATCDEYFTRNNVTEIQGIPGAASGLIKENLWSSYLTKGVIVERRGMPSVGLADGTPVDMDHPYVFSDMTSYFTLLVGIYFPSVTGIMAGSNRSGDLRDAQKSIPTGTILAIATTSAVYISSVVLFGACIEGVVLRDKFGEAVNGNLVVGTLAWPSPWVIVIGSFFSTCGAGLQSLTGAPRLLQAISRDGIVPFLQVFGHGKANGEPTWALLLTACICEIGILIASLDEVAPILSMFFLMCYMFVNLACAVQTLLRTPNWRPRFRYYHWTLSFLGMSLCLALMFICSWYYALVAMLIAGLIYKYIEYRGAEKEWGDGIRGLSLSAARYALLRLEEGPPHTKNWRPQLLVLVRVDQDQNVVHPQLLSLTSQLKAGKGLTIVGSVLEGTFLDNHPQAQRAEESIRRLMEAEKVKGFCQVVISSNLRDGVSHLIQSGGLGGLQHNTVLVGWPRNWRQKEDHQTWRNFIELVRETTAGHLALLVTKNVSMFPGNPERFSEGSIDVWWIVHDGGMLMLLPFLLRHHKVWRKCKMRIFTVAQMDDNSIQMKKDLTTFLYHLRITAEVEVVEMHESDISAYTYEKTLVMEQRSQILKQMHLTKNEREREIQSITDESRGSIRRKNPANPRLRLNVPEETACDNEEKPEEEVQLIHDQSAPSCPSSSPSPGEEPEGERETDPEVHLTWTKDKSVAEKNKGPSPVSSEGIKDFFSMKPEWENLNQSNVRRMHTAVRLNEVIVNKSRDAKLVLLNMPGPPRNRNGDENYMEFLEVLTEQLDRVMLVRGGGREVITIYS
# Target: T1, K+/Cl- co-transporter KCC2 (mouse …)
# Test: native gel or EMSA
# Conditions: remark: other sources report otherwise
binder,measurement,value
"K+/Cl- co-transporter KCC2, Q91V14 1-1138 (natural protein) MSRRFTVTSLPPAASAASADPESRRHSVADPRRLPREDVKGDGNPKESSPFINSTDTEKGREYDGRNMALFEEEMDTSPMVSSLLSGLANYTNLPQGSREHEEAENNEGGKKKPVQAPRMGTFMGVYLPCLQNIFGVILFLRLTWVVGIAGIMESFCMVFICCSCTMLTAISMSAIATNGVVPAGGSYYMISRSLGPEFGGAVGLCFYLGTTFAGAMYILGTIEILLAYLFPAMAIFKAEDASGEAAAMLNNMRVYGTCVLTCMATVVFVGVKYVNKFALVFLGCVILSILAIYAGVIKSAFDPPNFPICLLGNRTLSRHGFDVCAKLAWEGNETVTTRLWGLFCSSRLLNATCDEYFTRNNVTEIQGIPGAASGLIKENLWSSYLTKGVIVERRGMPSVGLADGTPVDMDHPYVFSDMTSYFTLLVGIYFPSVTGIMAGSNRSGDLRDAQKSIPTGTILAIATTSAVYISSVVLFGACIEGVVLRDKFGEAVNGNLVVGTLAWPSPWVIVIGSFFSTCGAGLQSLTGAPRLLQAISRDGIVPFLQVFGHGKANGEPTWALLLTACICEIGILIASLDEVAPILSMFFLMCYMFVNLACAVQTLLRTPNWRPRFRYYHWTLSFLGMSLCLALMFICSWYYALVAMLIAGLIYKYIEYRGAEKEWGDGIRGLSLSAARYALLRLEEGPPHTKNWRPQLLVLVRVDQDQNVVHPQLLSLTSQLKAGKGLTIVGSVLEGTFLDNHPQAQRAEESIRRLMEAEKVKGFCQVVISSNLRDGVSHLIQSGGLGGLQHNTVLVGWPRNWRQKEDHQTWRNFIELVRETTAGHLALLVTKNVSMFPGNPERFSEGSIDVWWIVHDGGMLMLLPFLLRHHKVWRKCKMRIFTVAQMDDNSIQMKKDLTTFLYHLRITAEVEVVEMHESDISAYTYEKTLVMEQRSQILKQMHLTKNEREREIQSITDESRGSIRRKNPANPRLRLNVPEETACDNEEKPEEEVQLIHDQSAPSCPSSSPSPGEEPEGERETDPEVHLTWTKDKSVAEKNKGPSPVSSEGIKDFFSMKPEWENLNQSNVRRMHTAVRLNEVIVNKSRDAKLVLLNMPGPPRNRNGDENYMEFLEVLTEQLDRVMLVRGGGREVITIYS",stoichiometry N,2
